Experimental data as given in PMC7893173.

What was measured:
[1] = target: HSV-1 nuclear egress complex NEC220 (UL31 1–306 with UL34 1–220) (herpes simplex virus type 1) (UniProt P10215)
[2] = target: HSV-1 nuclear egress complex NEC220 (UL31 1–306 with UL34 1–220) (herpes simplex virus type 1) (UniProt P10215); remark: listed apart in the source
[3] = target: HSV-1 nuclear egress complex NEC220 (UL31 1–306 with UL34 1–220) (herpes simplex virus type 1) (UniProt P10215); remark: listed apart in the source

HSV-1 UL25∆44 Q72A (from UniProt P10209 45-580) (domain or fragment)
inhibition of NEC220-mediated budding of giant unilamellar vesicles in vitro (1 μM NEC220; not inhibitory at NEC:UL25 1:1, value at 1:10) (% reduction in budding) [1]: 90

UL25^native(45–94) peptide (from UniProt P10209 45-94)
inhibition of NEC220-mediated budding of giant unilamellar vesicles in vitro (1 μM NEC220; NEC:peptide 1:0.1, 1:0.3, 1:0.6, 1:1 and 1:10; maximal effect at 1:1) (% reduction in budding) [2]: 75

B1: (EAEKAAK)7EAEK peptide (peptide)
peptide: EAEKAAKEAEKAAKEAEKAAKEAEKAAKEAEKAAKEAEKAAKEAEKAAKEAEK
inhibition of NEC220-mediated budding of giant unilamellar vesicles in vitro (1 μM NEC220; not inhibitory at NEC:peptide 1:1, value at 1:10) (% reduction in budding) [3]: 50
